Experiments:
Assay in all cases: GST pull-down, phosphorimaging
Conditions in all cases: chain shown with the change, 10 pmoles GST-Dpb11, read off a plot
[1] = target: T1, Sld3 (protein of Fig 3D; the legend prints 'CDK-phosphorylated Sld2'), P53135
T1 chain: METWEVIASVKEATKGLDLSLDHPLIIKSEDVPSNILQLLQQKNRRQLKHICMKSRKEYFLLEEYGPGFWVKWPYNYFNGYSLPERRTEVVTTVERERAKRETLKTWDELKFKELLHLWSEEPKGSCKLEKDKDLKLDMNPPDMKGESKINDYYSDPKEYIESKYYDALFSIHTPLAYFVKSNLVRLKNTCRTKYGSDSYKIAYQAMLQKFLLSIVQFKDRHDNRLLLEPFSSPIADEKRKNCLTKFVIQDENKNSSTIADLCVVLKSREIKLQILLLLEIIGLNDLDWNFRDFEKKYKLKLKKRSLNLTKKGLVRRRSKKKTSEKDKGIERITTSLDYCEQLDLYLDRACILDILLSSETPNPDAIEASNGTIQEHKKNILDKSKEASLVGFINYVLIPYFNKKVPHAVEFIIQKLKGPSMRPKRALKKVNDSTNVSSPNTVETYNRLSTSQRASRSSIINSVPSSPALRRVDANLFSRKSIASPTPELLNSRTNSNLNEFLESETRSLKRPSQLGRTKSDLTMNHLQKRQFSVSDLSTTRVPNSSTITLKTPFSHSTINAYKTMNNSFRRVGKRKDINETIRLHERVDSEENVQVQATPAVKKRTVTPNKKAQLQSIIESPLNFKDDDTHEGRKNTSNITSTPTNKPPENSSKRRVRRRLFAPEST

PKA-GINS, Q12488 = target: T2, PKA-GINS, Q12488
T2 chain 1: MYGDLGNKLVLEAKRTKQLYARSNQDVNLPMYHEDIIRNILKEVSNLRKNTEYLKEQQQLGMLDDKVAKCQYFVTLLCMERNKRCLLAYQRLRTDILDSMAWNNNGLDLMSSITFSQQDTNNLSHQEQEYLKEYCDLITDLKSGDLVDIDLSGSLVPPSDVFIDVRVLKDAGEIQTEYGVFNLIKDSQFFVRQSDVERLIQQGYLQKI
T2 chain 2: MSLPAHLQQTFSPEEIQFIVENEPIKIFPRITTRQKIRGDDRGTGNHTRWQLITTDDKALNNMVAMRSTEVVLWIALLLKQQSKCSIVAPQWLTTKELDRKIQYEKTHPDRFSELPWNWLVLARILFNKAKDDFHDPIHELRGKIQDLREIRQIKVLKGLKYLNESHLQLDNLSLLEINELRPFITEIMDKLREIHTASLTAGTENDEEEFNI
T2 chain 3: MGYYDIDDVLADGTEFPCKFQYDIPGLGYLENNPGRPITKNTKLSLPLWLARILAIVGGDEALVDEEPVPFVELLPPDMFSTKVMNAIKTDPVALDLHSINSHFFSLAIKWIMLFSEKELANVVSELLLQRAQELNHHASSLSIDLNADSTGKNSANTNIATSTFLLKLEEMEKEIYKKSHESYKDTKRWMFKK
T2 chain 4: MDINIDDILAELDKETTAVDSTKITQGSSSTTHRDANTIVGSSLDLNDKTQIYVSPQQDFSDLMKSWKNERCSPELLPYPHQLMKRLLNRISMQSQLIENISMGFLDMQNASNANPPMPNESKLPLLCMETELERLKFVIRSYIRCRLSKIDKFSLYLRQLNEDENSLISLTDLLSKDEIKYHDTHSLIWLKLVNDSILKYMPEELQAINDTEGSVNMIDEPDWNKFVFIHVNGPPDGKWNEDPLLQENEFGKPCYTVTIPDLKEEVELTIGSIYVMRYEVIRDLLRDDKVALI

[2] = target: T3, GST-Dpb11-wild-type, P47027
T3 chain: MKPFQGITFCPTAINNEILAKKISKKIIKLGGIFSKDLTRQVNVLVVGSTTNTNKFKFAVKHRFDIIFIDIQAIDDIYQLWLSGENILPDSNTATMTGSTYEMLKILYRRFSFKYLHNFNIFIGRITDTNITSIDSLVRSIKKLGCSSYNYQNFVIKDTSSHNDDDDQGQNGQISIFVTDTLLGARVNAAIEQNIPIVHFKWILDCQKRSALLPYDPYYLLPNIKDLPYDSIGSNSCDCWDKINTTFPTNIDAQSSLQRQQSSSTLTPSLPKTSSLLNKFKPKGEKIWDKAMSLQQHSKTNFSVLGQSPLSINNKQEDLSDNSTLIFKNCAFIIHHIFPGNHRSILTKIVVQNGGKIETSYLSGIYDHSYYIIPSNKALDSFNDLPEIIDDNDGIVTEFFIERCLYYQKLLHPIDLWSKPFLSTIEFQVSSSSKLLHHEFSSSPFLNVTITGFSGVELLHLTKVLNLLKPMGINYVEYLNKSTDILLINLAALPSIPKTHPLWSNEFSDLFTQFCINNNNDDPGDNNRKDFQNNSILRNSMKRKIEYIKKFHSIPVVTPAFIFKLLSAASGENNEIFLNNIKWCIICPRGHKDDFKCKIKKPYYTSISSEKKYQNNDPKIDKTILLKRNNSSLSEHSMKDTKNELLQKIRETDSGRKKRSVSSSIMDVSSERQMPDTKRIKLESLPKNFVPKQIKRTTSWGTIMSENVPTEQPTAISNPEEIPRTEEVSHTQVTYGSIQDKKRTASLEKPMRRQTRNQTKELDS

B1: GST-Dpb11-wild-type, P47027 K463E; K469E; R538E; K549E (protein)
chain: MKPFQGITFCPTAINNEILAKKISKKIIKLGGIFSKDLTRQVNVLVVGSTTNTNKFKFAVKHRFDIIFIDIQAIDDIYQLWLSGENILPDSNTATMTGSTYEMLKILYRRFSFKYLHNFNIFIGRITDTNITSIDSLVRSIKKLGCSSYNYQNFVIKDTSSHNDDDDQGQNGQISIFVTDTLLGARVNAAIEQNIPIVHFKWILDCQKRSALLPYDPYYLLPNIKDLPYDSIGSNSCDCWDKINTTFPTNIDAQSSLQRQQSSSTLTPSLPKTSSLLNKFKPKGEKIWDKAMSLQQHSKTNFSVLGQSPLSINNKQEDLSDNSTLIFKNCAFIIHHIFPGNHRSILTKIVVQNGGKIETSYLSGIYDHSYYIIPSNKALDSFNDLPEIIDDNDGIVTEFFIERCLYYQKLLHPIDLWSKPFLSTIEFQVSSSSKLLHHEFSSSPFLNVTITGFSGVELLHLTEVLNLLEPMGINYVEYLNKSTDILLINLAALPSIPKTHPLWSNEFSDLFTQFCINNNNDDPGDNNRKDFQNNSILENSMKRKIEYIEKFHSIPVVTPAFIFKLLSAASGENNEIFLNNIKWCIICPRGHKDDFKCKIKKPYYTSISSEKKYQN
response ([1]; 1 pmole CDK-Sld3 input, parent: est. 0.34): 0.29 pmol
response ([1]; 3 pmoles CDK-Sld3 input, parent: est. 0.60): 0.65 pmol
response ([1]; 10 pmoles CDK-Sld3 input, parent: est. 1.5): 1.4 pmol
response (PKA-GINS, Q12488; 1 pmole GINS input, parent: est. 0.60): 0.65 pmol
response (PKA-GINS, Q12488; 3 pmoles GINS input, parent: est. 1.4): 1.4 pmol
response (PKA-GINS, Q12488; 10 pmoles GINS input, parent: est. 2.5): 2.6 pmol

B2: Sld2 T84D (protein)
chain: MYSFELDKLKIELKTWEHDFIDKNKREPTRDDIKSLRTVRQMYKQYSTLKKKQSLQRQKVDTQESVELPAHKKDHDEVVEIGPDPQVYGKAISIFDMNLSPIKPIYMTFTNNIDVNNDNSKTISNESSPRKTILLKSSPADRTLVAEPISSVKRQLNFQMLNASSTRTPTSSPCKNRNGKLVEIKKCSPTINPPLESGKPSGYYGPNSPLKLDEENIHLNISLNSSTKRRLQIAYPSLQKTPSKDQADISTSFSPSPLIRRPLTKSLIELAREHTEIVKEFGVLQEEDIEEEEEGEEGENGYDEKNHEDDFGLEDELIRPKVVKDIFQEDDDNDDSQAREDTFIRKRPKRRKVIRRLRDNDPETETAGFERDVHKELVKLKRRKVAEFLGSTSQISDTEFEHDPEASSGVVSSEQKPTAKRKGRKKYNLVSNNFRRLKLPKKNRFSNGRWGRR
response ([2]; 1 pmole Sld2T84D input): 0.28 pmol
response ([2]; 3 pmoles Sld2T84D input): 0.64 pmol
response ([2]; 10 pmoles Sld2T84D input): 1.6 pmol

From paper PMC5415106
